Assays:
[1] = target: T1, Her2 expressed on Sk-Br-3 cells (human, UniProt P04626 23-1255); assay: flow cytometry, dilution series on Sk-Br-3 cells
T1 construct: whole, on cells; also called human epidermal growth factor receptor 2
Protocol: Her2 expressing Sk-Br-3-cells and HEK293-hFAP overexpressing cells were thawed, washed with medium containing FCS, subsequently washed with FACS blocking buffer (PBS/0.1% Sodium Azide/3% FCS) and 100 μl seeded in 96-well round bottom plates with a density of 1×10⁶ cells/ml. Dilution series from 10 µM to 8.6 fM (CID 217781, CID 217787) and a dilution series of 3 µM to 0.2 μM (CID 218466, CID 218467, 218512, CID 218513, CID 218514, CID 218515, CID 218516) were incubated on Her2-expressing Sk-Br-3-cells and dilution series from 1 μM to 0.07 μM of fusion proteins 218690 and 218702 were incubated on hFAP-overexpressing HEK293-cell line for 45 min at 4° C. After centrifugation the supernatants were removed and cells were washed with FACS blocking buffer and 100 μl/well rabbit anti-Strep-Tag antibody (GenScript; A00626), 1:300 diluted in FACS blocking buffer were added. After removal of the primary antibody goat anti-rabbit IgG Alexa Fluor 488 antibody (Invitrogen; A4008) was applied in a 1:1000 dilution in FACS blocking buffer. Flow cytometry measurement was conducted on the Guava easyCyte 5HT device from Merck-Millipore at excitation wavelength 488 nm and emission wavelength 525/30 nm. The * in table 2 refers to a fusion protein with the albumin binding domain as dimer (homo-dimer) and/or the targeting moiety as dimer.

Her2-Fc [2] = target: T2, Her2-Fc (human, UniProt P04626 23-652); assay: ELISA on coated Her2-Fc; 0 h in human serum
T2 construct: Coated in ELISA
Protocol: (§1) High binding plates (Greiner, 781061) were immobilized with 2.5 μg/ml hFAP-Fc or 1.2 μg/ml Her2-Fc over night at 4° C. Dilution series of 3 μM to 0.07 pM of fusion proteins with binding specifically to Her2 were incubated in 100% human serum or 100% mouse serum for 24 h at 37° C. Dilution series of 3 µM to 0.2 pM or 1 μM to 0.01 fM of fusion proteins with binding specifically to hFAP were incubated in 100% human serum or 100% mouse serum for 24 h at 37° C. ELISA-plates were washed three times with PBST (PBS+0.1% Tween) and blocked with 3% BSA/0.5% Tween/PBS up to 2 h at room temperature (rt). After preincubation for 0 h or 24 h in the presence of serum the dilution series were incubated on ELISA-plates for up to 1 h at rt. Wells were washed with PBST and incubated with biotinylated anti-ubiquitin-antibody (1:300) for up to 1 h at rt. The binding was visualized with Streptavidin-HRP (1:5.000).
(§2) The fusion proteins comprise the albumin binding domain (referred to as HED) and the targeting moiety.

Her2-Fc [3] = target: T2, Her2-Fc; assay: ELISA on coated Her2-Fc; after 24 h in human serum at 37 C
Protocol: as §1, §2

Her2-Fc [4] = target: T2, Her2-Fc; assay: ELISA on coated Her2-Fc; KD 24 h against KD 0 h, mouse serum
Protocol: as §1, §2

human serum albumin = target: T3, human serum albumin (human, UniProt P02768 25-609); assay: SPR, HSA immobilised on the chip, pH 7.3, 1:1 Langmuir fit
T3 construct: also called HSA
T3 sequence (P02768 25-609 limits assumed): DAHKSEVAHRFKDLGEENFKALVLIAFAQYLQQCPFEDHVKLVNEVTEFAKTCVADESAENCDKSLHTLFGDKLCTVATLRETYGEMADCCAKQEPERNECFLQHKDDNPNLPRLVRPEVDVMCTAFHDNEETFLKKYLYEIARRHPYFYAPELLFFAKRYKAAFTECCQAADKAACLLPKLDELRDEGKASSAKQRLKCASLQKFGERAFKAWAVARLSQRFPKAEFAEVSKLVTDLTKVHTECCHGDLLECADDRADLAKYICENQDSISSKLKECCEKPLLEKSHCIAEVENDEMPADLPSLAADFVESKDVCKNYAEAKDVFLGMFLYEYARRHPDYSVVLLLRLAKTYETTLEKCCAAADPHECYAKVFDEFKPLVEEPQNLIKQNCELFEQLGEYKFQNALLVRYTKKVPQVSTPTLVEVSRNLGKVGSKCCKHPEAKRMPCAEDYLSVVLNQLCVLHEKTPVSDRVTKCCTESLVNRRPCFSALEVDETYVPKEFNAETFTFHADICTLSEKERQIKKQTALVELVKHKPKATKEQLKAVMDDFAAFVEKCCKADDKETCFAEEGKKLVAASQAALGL
Protocol: (§3) Recombinant protein A, HSA, MSA or target (either ED-B or Her2) was immobilized on a High Capacity Amine sensor chip (Bruker) after NHS/EDC activation with a Sierra SPR-32 system (Bruker). The chip was equilibrated with SPR running buffer (PBS 0.05%, Tween pH 7.3). Injection of ethanolamine after target immobilization was used to block free NHS groups. To determine the binding of fusion proteins to FAP, the Fc-tagged target was injected with 60 or 30 nM to Protein A coupled spots followed by the injection of fusion proteins.
(§4) Binding proteins were applied to the chip in serial dilutions with a flow rate of 30 μl/min. Upon binding, analyte accumulated on the surface increasing the refractive index. This change in the refractive index was measured in real time and plotted as response or resonance units versus time. The association was performed for 120 seconds and the dissociation for 180 seconds. After each run, the chip surface was regenerated with 30 μl regeneration buffer (10 mM glycine pH 2.0 or pH 1.5) and equilibrated with running buffer. Binding studies were carried out using the Sierra SPR-32 system (Bruker); data evaluation was operated via the Sierra Analyser software, provided by the manufacturer, by the use of the Langmuir 1:1 model (RI=0).

Her2-Fc [5] = target: T2, Her2-Fc; assay: ELISA on coated Her2-Fc; 24 h in human serum at 37 C
Protocol: as §1, §2

Her2-Fc [6] = target: T2, Her2-Fc; assay: ELISA on coated Her2-Fc; 0 h in mouse serum
Protocol: as §1, §2

Her2-Fc [7] = target: T2, Her2-Fc; assay: ELISA on coated Her2-Fc; 24 h in mouse serum at 37 C
Protocol: as §1, §2

[8] = target: T4, Her2 (immobilised on the SPR chip) (human, UniProt P04626 23-652, limits assumed); assay: SPR, Her2 immobilised on the chip, pH 7.3, 1:1 Langmuir fit
T4 construct: construct not described; also called human epidermal growth factor receptor 2
Protocol: as §3, §4

Her2-Fc [9] = target: T2, Her2-Fc; assay: ELISA on coated Her2-Fc; KD 24 h against KD 0 h, human serum
Protocol: as §1, §2

Her2-Fc [10] = target: T2, Her2-Fc; assay: ELISA on coated Her2-Fc; after 24 h in mouse serum at 37 C
Protocol: as §1, §2

Row | Binder | Kd [1] [nM] | Kd (Her2-Fc [2]) [nM] | max binding after 24 h [%] (Her2-Fc [3]) | increase of KD vs target [fold] (Her2-Fc [4]) | Kd (human serum albumin) [nM] | Kd (Her2-Fc [5]) [nM] | Kd (Her2-Fc [6]) [nM] | Kd (Her2-Fc [7]) [nM] | Kd [8] [nM] | increase of KD vs target [fold] (Her2-Fc [9]) | max binding after 24 h [%] (Her2-Fc [10])
1 | fusion protein 218515 (designed binder, not shown: small tags and cut ends, also called CID 218515) chain (part 1 of 2): not shown chain (part 2 of 2): LAEAKVLALKELDKYGISNYYKNLINNAKTIEGVKALKAQIVAA | 1.47 | 0.34 | 96.1 | 1.16 | 9.1 | 0.28 | 0.18 | 0.21 | 2.5 | 0.82 | 108
2 | fusion protein 218516 (designed binder, not shown: small tags and cut ends, also called CID 218516) chain (part 1 of 2): not shown chain (part 2 of 2): LAEAKVLAIKELDKAGISNYYFNLINNAKTVEGVKALKAQIVAA | 2.57 | 0.39 | 98.9 | 1.21 | 10.9 | 0.28 | 0.17 | 0.2 | 2.4 | 0.71 | 101
